Laboratory results published in article PMC3989777 (Cell Reports, 2014).
Where a SMILES comes first, the peptide text is derived from it. Where no end group is shown, it is not given here. [ ]: non-standard residue; d: D form. pS = N[C@@H](COP(=O)(O)O)C(=O)O

Tests used:
PIH1D1 (1-180) = PIH1D1 (1-180) (Homo sapiens, UniProt Q9NWS0); assay: ITC of phosphopeptide binding to PIH1D1 1-180
PIH1D1 1–180 = PIH1D1 1–180 (human, UniProt Q9NWS0 1-180); assay: ITC
PIH1D1 1–180, sequence (Q9NWS0 1-180): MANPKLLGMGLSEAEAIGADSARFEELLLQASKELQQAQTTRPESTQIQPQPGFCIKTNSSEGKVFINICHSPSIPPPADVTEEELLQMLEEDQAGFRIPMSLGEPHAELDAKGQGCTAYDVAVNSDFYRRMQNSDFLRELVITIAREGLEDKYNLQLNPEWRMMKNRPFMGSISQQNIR

PIH1D1 (1-180), sequence (Q9NWS0 1-180): as above

Row | higher affinity relative to the TEL2 peptide phosphorylated on Ser491 (PIH1D1 (1-180)) | Kd (PIH1D1 1–180) [µM] | Molecule
1 | 2- to 3 fold |  | CC(C)C[C@H](NC(=O)[C@H](CC(=O)O)NC(=O)[C@H](COP(=O)(O)O)NC(=O)[C@H](CC(=O)O)NC(=O)[C@H](CO)NC(=O)CNC(=O)[C@H](C)NC(=O)[C@@H](N)Cc1ccc(O)cc1)C(=O)N[C@@H](CC(=O)O)C(=O)N[C@@H](COP(=O)(O)O)C(=O)N[C@@H](CC(=O)O)C(=O)N[C@@H](CC(=O)O)C(=O)N[C@@H](CCC(=O)O)C(=O)N[C@@H](Cc1ccccc1)C(=O)N[C@H](C(=O)N1CCC[C@H]1C(=O)N[C@@H](Cc1ccc(O)cc1)C(N)=O)C(C)C (H-YAGSD[pS]DLD[pS]DDEFVPY-NH2)
2 |  | 3.5 | YAGSDSDLD[pS]DDEFVPY (also: phosphoserine at Ser491, place not mappable) [TEL2 peptide phosphorylated on Ser491]
3 |  | 16 | RPNESD[pS]DDLDDY [ECD peptide RPNESDpS505DDLDDY]
